Results from patent US20250304690A1 (HANGZHOU VIROMAB BIOTECH, published 2025).

Key:
[1] = target: TT3 labeling polypeptide on cells; experiment: flow cytometry (as for Table 1)
[2] = target: TT3 antigen (ELISA coating antigen); experiment: ELISA, plate-coated TT3 antigen
Description: The activity of the prepared humanized antibodies was assessed by ELISA as follows: The TT3 antigen was diluted to 0.5 g/mL using a coating solution and added to a 96-well plate at 100 L/well, and the plate was incubated overnight at 4° C. The plate was washed with PBST. Then 200 μL of an antibody blocking solution was added to each well, and blocking was performed at 37° C. for 2 h. The plate was washed with PBST. Different antibodies (initial concentration: 100 nM; serially diluted in a 1:6 ratio) were added at 100 L/well, and the plate was incubated at 37° C. for 2 h. The plate was washed with PBST. An HRP-bound goat anti-human/mouse IgG antibody was added at 100 μL/well, and the plate was incubated at 37° C. for 1 h. The plate was washed with PBST, and TMB was added at 100 L/well. Color development was performed at 37° C. for 10-20 min, and 50 µL of 2 M sulfuric acid was added to each well to stop the reaction. OD readings were taken at a wavelength of 450 nm.

[3] = target: TT3 labeling polypeptide on cells; experiment: flow cytometry on MC38-TT3 cells
[4] = target: TT3 labeling polypeptide on cells; experiment: flow cytometry on HCT116-TT3 cells
[5] = target: TT3 labeling polypeptide on cells; experiment: flow cytometry on SK-HEP-1-TT3 cells

Chain of TT3 labeling polypeptide on cells (P01732 other isoform, or with tags, fused parts or gaps limits assumed): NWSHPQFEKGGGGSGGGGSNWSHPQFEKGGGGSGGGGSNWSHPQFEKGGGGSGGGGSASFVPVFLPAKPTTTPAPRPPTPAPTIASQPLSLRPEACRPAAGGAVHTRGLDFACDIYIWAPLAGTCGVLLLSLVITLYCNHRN

Binder | binding result [1] | other results
BK-B-110 (bispecific antibody) ELVMTQSPASLAVSLGQRATISCRASESVDSYGKSFMHWYQLKPGQPPKLLIYRASNLESGVPARFSGSGSRTDFTLTIDPVEADDAATYYCQQNNEDPWTFGGGTKLEIKGSTSGSGKPGSGEGSTKGEVQLEQSGPELVKPGASVKMSCKASGYTFTNYYMKWVKQSHGKSLEWIGDLNPNNGDTFYNQKFKGKATLTVDKSSNTAYMQLNSLTSEDSAVYYCARTGRYEENAMDYWGQGTSVTVSSPCPAPEFEGGPSVFLFPPKPKDTLMISRTPEVTCVVVDVSHEDPEVKFNWYVDGVEVHNAKTKPREEQYNSTYRVVSVLTVLHQDWLNGKEYKCKVSNKALPASIEKTISKAKGQPREPQVYTLPPSREEMTKNQVSLTCLVKGFYPSDIAVEWESNGQPENNYKTTPPVLDSDGSFFLYSKLTVDKSRWQQGNVFSCSVMHEALHNHYTQKSLSLSPGKGGGGSGGGGSGGGGSQAVVTQESALTTSPGETVTLTCRSSTGAVTTSNYANWVQEKPDHLFTGLIGGTNKRAPGVPARFSGSLIGDKAALTITGAQTEDEAIYFCALWYSNLWVFGGGTKLTVLGGGGSGGGGSGGGGSEVKLLESGGGLVQPKGSLKLSCAASGFTFNTYAMNWVRQAPGKGLEWVARIRSKYNNYATYYADSVKDRFTISRDDSQSILYLQMNNLKTEDTAMYYCVRHGNFGNSYVSWFAYWGQGTLVTVSA | binds | 
BK-B-110-hu2 (bispecific antibody) ELVMTQSPASLAVSLGQRATISCRASESVDSYGKSFMHWYQLKPGQPPKLLIYRASNLESGVPARFSGSGSRTDFTLTIDPVEADDAATYYCQQNNEDPWTFGGGTKLEIKGSTSGSGKPGSGEGSTKGEVQLEQSGPELVKPGASVKMSCKASGYTFTNYYMKWVKQSHGKSLEWIGDLNPNNGDTFYNQKFKGKATLTVDKSSNTAYMQLNSLTSEDSAVYYCARTGRYEENAMDYWGQGTSVTVSSPCPAPEFEGGPSVFLFPPKPKDTLMISRTPEVTCVVVDVSHEDPEVKFNWYVDGVEVHNAKTKPREEQYNSTYRVVSVLTVLHQDWLNGKEYKCKVSNKALPASIEKTISKAKGQPREPQVYTLPPSREEMTKNQVSLTCLVKGFYPSDIAVEWESNGQPENNYKTTPPVLDSDGSFFLYSKLTVDKSRWQQGNVFSCSVMHEALHNHYTQKSLSLSPGKGGGGSGGGGSGGGGSQAVVTQEPSLTVSPGGTVTLTCRSSTGAVTTSNYANWVQQKPGQAPRTLIGGTNKRAPWVPARFSGSLLGDKAALTLSGAQPEDEAEYYCALWYSNLWVFGGGTKLTVLGGGGSGGGGSGGGGSEVQLVESGGGLVQPGGSLRLSCAASGFTFNTYAMNWVRQAPGKGLEWVARIRSKYNNYATYYADSVKDRFTISRDDSKNILYLQMNSLKTEDTAVYYCVRHGNFGNSYVSWFAYWGQGTLVTVSA | binds | 
BK-B-110-hu4 (bispecific antibody) ELVMTQSPASLAVSLGQRATISCRASESVDSYGKSFMHWYQLKPGQPPKLLIYRASNLESGVPARFSGSGSRTDFTLTIDPVEADDAATYYCQQNNEDPWTFGGGTKLEIKGSTSGSGKPGSGEGSTKGEVQLEQSGPELVKPGASVKMSCKASGYTFTNYYMKWVKQSHGKSLEWIGDLNPNNGDTFYNQKFKGKATLTVDKSSNTAYMQLNSLTSEDSAVYYCARTGRYEENAMDYWGQGTSVTVSSPCPAPEFEGGPSVFLFPPKPKDTLMISRTPEVTCVVVDVSHEDPEVKFNWYVDGVEVHNAKTKPREEQYNSTYRVVSVLTVLHQDWLNGKEYKCKVSNKALPASIEKTISKAKGQPREPQVYTLPPSREEMTKNQVSLTCLVKGFYPSDIAVEWESNGQPENNYKTTPPVLDSDGSFFLYSKLTVDKSRWQQGNVFSCSVMHEALHNHYTQKSLSLSPGKGGGGSGGGGSGGGGSQAVVTQEPSLTVSPGGTVTLTCRSSTGAVTTSNYANWVQQKPGQAPRTLIGGTNKRAPWTPARFSGSLLGGKAALTLSGAQPEDEAEYYCALWYSNLWVFGGGTKLTVLGGGGSGGGGSGGGGSEVQLVESGGGLVQPGGSLRLSCAASGFTFNTYAMNWVRQAPGKGLEWVARIRSKYNNYATYYADSVKDRFTISRDDSKNILYLQMNSLKTEDTAMYYCVRHGNFGNSYVSWFAYWGQGTLVTVSA | binds | 
BK-B-110-hu5 (bispecific antibody) ELVMTQSPASLAVSLGQRATISCRASESVDSYGKSFMHWYQLKPGQPPKLLIYRASNLESGVPARFSGSGSRTDFTLTIDPVEADDAATYYCQQNNEDPWTFGGGTKLEIKGSTSGSGKPGSGEGSTKGEVQLEQSGPELVKPGASVKMSCKASGYTFTNYYMKWVKQSHGKSLEWIGDLNPNNGDTFYNQKFKGKATLTVDKSSNTAYMQLNSLTSEDSAVYYCARTGRYEENAMDYWGQGTSVTVSSPCPAPEFEGGPSVFLFPPKPKDTLMISRTPEVTCVVVDVSHEDPEVKFNWYVDGVEVHNAKTKPREEQYNSTYRVVSVLTVLHQDWLNGKEYKCKVSNKALPASIEKTISKAKGQPREPQVYTLPPSREEMTKNQVSLTCLVKGFYPSDIAVEWESNGQPENNYKTTPPVLDSDGSFFLYSKLTVDKSRWQQGNVFSCSVMHEALHNHYTQKSLSLSPGKGGGGSGGGGSGGGGSQAVVTQEPSLTVSPGGTVTLTCRSSTGAVTTSNYANWVQQKPGQAPRTLIGGTNKRAPWVPARFSGSLLGDKAALTLSGAQPEDEAEYYCALWYSNLWVFGGGTKLTVLGGGGSGGGGSGGGGSEVQLVESGGGLVQPGGSLRLSCAASGFTFNTYAMNWVRQAPGKGLEWVARIRSKYNNYATYYADSVKDRFTISRDDSKNILYLQMNSLKTEDTAMYYCVRHGNFGNSYVSWFAYWGQGTLVTVSA | binds | 
BK-B-110-hu1 (bispecific antibody) ELVMTQSPASLAVSLGQRATISCRASESVDSYGKSFMHWYQLKPGQPPKLLIYRASNLESGVPARFSGSGSRTDFTLTIDPVEADDAATYYCQQNNEDPWTFGGGTKLEIKGSTSGSGKPGSGEGSTKGEVQLEQSGPELVKPGASVKMSCKASGYTFTNYYMKWVKQSHGKSLEWIGDLNPNNGDTFYNQKFKGKATLTVDKSSNTAYMQLNSLTSEDSAVYYCARTGRYEENAMDYWGQGTSVTVSSPCPAPEFEGGPSVFLFPPKPKDTLMISRTPEVTCVVVDVSHEDPEVKFNWYVDGVEVHNAKTKPREEQYNSTYRVVSVLTVLHQDWLNGKEYKCKVSNKALPASIEKTISKAKGQPREPQVYTLPPSREEMTKNQVSLTCLVKGFYPSDIAVEWESNGQPENNYKTTPPVLDSDGSFFLYSKLTVDKSRWQQGNVFSCSVMHEALHNHYTQKSLSLSPGKGGGGSGGGGSGGGGSQAVVTQEPSLTVSPGGTVTLTCRSSTGAVTTSNYANWVQQKPGQAPRTLIGGTNKRAPWTPARFSGSLLGGKAALTLSGAQPEDEAEYYCALWYSNLWVFGGGTKLTVLGGGGSGGGGSGGGGSEVQLVESGGGLVQPGGSLRLSCAASGFTFNTYAMNWVRQAPGKGLEWVARIRSKYNNYATYYADSVKDRFTISRDDSKNILYLQMNSLKTEDTAVYYCVRHGNFGNSYVSWFAYWGQGTLVTVSA | binds | 
BK-B-110-hu6 (bispecific antibody) ELVMTQSPASLAVSLGQRATISCRASESVDSYGKSFMHWYQLKPGQPPKLLIYRASNLESGVPARFSGSGSRTDFTLTIDPVEADDAATYYCQQNNEDPWTFGGGTKLEIKGSTSGSGKPGSGEGSTKGEVQLEQSGPELVKPGASVKMSCKASGYTFTNYYMKWVKQSHGKSLEWIGDLNPNNGDTFYNQKFKGKATLTVDKSSNTAYMQLNSLTSEDSAVYYCARTGRYEENAMDYWGQGTSVTVSSPCPAPEFEGGPSVFLFPPKPKDTLMISRTPEVTCVVVDVSHEDPEVKFNWYVDGVEVHNAKTKPREEQYNSTYRVVSVLTVLHQDWLNGKEYKCKVSNKALPASIEKTISKAKGQPREPQVYTLPPSREEMTKNQVSLTCLVKGFYPSDIAVEWESNGQPENNYKTTPPVLDSDGSFFLYSKLTVDKSRWQQGNVFSCSVMHEALHNHYTQKSLSLSPGKGGGGSGGGGSGGGGSQAVVTQEPSLTVSPGGTVTLTCRSSTGAVTTSNYANWVQEKPGQAPRTLIGGTNKRAPWVPARFSGSLLGDKAALTLSGAQPEDEAEYYCALWYSNLWVFGGGTKLTVLGGGGSGGGGSGGGGSEVQLVESGGGLVQPGGSLRLSCAASGFTFNTYAMNWVRQAPGKGLEWVARIRSKYNNYATYYADSVKDRFTISRDDSKNILYLQMNSLKTEDTAMYYCVRHGNFGNSYVSWFAYWGQGTLVTVSA | binds | 
BK-B-110-hu3 (bispecific antibody) ELVMTQSPASLAVSLGQRATISCRASESVDSYGKSFMHWYQLKPGQPPKLLIYRASNLESGVPARFSGSGSRTDFTLTIDPVEADDAATYYCQQNNEDPWTFGGGTKLEIKGSTSGSGKPGSGEGSTKGEVQLEQSGPELVKPGASVKMSCKASGYTFTNYYMKWVKQSHGKSLEWIGDLNPNNGDTFYNQKFKGKATLTVDKSSNTAYMQLNSLTSEDSAVYYCARTGRYEENAMDYWGQGTSVTVSSPCPAPEFEGGPSVFLFPPKPKDTLMISRTPEVTCVVVDVSHEDPEVKFNWYVDGVEVHNAKTKPREEQYNSTYRVVSVLTVLHQDWLNGKEYKCKVSNKALPASIEKTISKAKGQPREPQVYTLPPSREEMTKNQVSLTCLVKGFYPSDIAVEWESNGQPENNYKTTPPVLDSDGSFFLYSKLTVDKSRWQQGNVFSCSVMHEALHNHYTQKSLSLSPGKGGGGSGGGGSGGGGSQAVVTQEPSLTVSPGGTVTLTCRSSTGAVTTSNYANWVQEKPGQAPRTLIGGTNKRAPWVPARFSGSLLGDKAALTLSGAQPEDEAEYYCALWYSNLWVFGGGTKLTVLGGGGSGGGGSGGGGSEVQLVESGGGLVQPGGSLRLSCAASGFTFNTYAMNWVRQAPGKGLEWVARIRSKYNNYATYYADSVKDRFTISRDDSKNILYLQMNSLKTEDTAVYYCVRHGNFGNSYVSWFAYWGQGTLVTVSA | binds | 
Ab-TT3 (antibody, V domains shown, also called anti-Strep tag II antibody before humanization) VH: EVQLEQSGPELVKPGASVKMSCKASGYTFTNYYMKWVKQSHGKSLEWIGDLNPNNGDTFYNQKFKGKATLTVDKSSNTAYMQLNSLTSEDSAVYYCARTGRYEENAMDYWGQGTSVTVSS VL: ELVMTQSPASLAVSLGQRATISCRASESVDSYGKSFMHWYQLKPGQPPKLLIYRASNLESGVPARFSGSGSRTDFTLTIDPVEADDAATYYCQQNNEDPWTFGGGTKLEIK |  | EC50 [2]: 0.0878 nM
TT3 Ab-2 (antibody, human IgG1, kappa, V domains shown, also called humanized anti-TT3 monoclonal antibody) VH: QVQLVQSGAEVKKPGASVKVSCKASGYTFTNYYMKWVKQAPGQSLEWIGDLNPNNGDTFYNQKFKGRVTITVDKSASTAYMELNSLRSEDTAVYYCARTGRYEENAMDYWGQGTLVTVSS VL: DLVMTQSPASLAVSPGQRATITCRASESVDSYGKSFMHWYQQKPGQPPKLLIYRASNLESGVPARFSGSGSRTDFTLTINPVEANDTANYYCQQNNEDPWTFGQGTKLEIKR |  | EC50 [2]: 0.0105 nM; EC50 [3]: 2.33 nM; EC50 [4]: 0.958 nM; EC50 [5]: 1.53 nM
